This assay has as its target Full-length Synechococcus PCC 7335 nitric oxide synthase (syNOS) (Synechococcus sp. PCC 7335). The experiment in a line: cryo-EM structure.

For the substance “Full-length Synechococcus PCC 7335 nitric oxide synthase (syNOS) (enzyme)”, the stoichiometry N was found to be 2.

By stoichiometry N is commonly meant a count of units in the complex or per binding partner.
